The experiment concerns the target 新冠病毒S1-RBD蛋白 (新冠病毒 (SARS-CoV-2), UniProt P0DTC2 319-541). The experiment in a line: […] (BLI), […], antibody 118 nM to 1.88 nM, 1:1 model.

Among the data in patent CN117368459A (INST MILITARY MEDICINE ACADEMY MILITARY SCIENCES PLA, dated 2024) are Kd values, retold here.

B1: Nluc-chC25抗体 (antibody, human IgG1)
light: NIVLTQSPVSLAVSLGQRATISCRASESVDSYGNSFMHWYQQKPGQPPKLLIYIASNLESGVPARFSGGGSRTDFTLTIDPVEADDAATYYCQQNYEDPWTFGGGTKLEIKRADAAPSVFIFPPSDEQLKSGTASVVCLLNNFYPREAKVQWKVDNALQSGNSQESVTEQDSKDSTYSLSSTLTLSKADYEKHKVYACEVTHQGLSSPVTKSFNRGEC
heavy: not shown
notes: also called Nluc-chC25重组抗体; Nluc标记重组抗体
As to B1, binding was put at a Kd of 0.0151 nM.

B2: HRP-chC25抗体 (antibody, human IgG1)
light: B1 light
heavy: not shown
notes: also called HRP标记重组抗体; HRP-2C5
B2: the Kd (usually a measure of binding affinity in units of concentration) worked out at 0.0375 nM.
